This is an account of results in paper PMC8138981.

For assay [1], the target named is mTFP1-AB-mcpVenus folding biosensor, WT (human).
In assay [2] the target is mTFP1-AB-mcpVenus folding biosensor, W344R (human).
Assay [3] addresses YFP-tagged Kv7.2 WT channel (human) (UniProt O43526). Description: FRET or BRET; living HEK293T cells; mCFP-CaM (donor) and YFP (mCitrine)-tagged Kv7.2, ABCD or AB (acceptor), transfection ratio 1:5; spectral unmixing of confocal images; room temperature, buffer with 2 mM CaCl2, pH 7.4.

Sequence of mTFP1-AB-mcpVenus folding biosensor, WT (human) (O43526 whole entry): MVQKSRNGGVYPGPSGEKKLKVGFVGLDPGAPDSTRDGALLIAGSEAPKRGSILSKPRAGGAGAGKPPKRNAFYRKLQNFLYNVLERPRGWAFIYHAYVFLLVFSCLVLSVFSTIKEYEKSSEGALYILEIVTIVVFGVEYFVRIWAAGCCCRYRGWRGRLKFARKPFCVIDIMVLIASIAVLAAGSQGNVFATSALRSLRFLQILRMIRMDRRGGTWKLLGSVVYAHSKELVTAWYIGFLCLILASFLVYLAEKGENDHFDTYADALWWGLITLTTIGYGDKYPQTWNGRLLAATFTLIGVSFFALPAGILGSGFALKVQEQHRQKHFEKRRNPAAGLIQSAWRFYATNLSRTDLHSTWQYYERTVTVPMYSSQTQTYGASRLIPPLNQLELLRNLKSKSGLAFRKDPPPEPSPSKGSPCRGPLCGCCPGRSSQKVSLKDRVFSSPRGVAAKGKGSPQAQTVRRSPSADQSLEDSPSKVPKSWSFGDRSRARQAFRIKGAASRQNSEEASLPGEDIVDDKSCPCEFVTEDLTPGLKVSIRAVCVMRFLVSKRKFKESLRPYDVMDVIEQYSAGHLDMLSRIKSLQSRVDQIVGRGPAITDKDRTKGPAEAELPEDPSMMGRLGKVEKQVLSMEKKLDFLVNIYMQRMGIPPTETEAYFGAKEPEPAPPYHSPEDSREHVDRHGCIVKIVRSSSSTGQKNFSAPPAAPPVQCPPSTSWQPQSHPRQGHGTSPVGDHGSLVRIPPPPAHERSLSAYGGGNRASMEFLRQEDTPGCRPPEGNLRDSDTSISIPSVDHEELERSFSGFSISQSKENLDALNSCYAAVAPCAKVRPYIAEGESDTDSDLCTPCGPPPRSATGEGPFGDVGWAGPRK
Sequence of YFP-tagged Kv7.2 WT channel (human) (O43526 other isoform, or with tags, fused parts or gaps): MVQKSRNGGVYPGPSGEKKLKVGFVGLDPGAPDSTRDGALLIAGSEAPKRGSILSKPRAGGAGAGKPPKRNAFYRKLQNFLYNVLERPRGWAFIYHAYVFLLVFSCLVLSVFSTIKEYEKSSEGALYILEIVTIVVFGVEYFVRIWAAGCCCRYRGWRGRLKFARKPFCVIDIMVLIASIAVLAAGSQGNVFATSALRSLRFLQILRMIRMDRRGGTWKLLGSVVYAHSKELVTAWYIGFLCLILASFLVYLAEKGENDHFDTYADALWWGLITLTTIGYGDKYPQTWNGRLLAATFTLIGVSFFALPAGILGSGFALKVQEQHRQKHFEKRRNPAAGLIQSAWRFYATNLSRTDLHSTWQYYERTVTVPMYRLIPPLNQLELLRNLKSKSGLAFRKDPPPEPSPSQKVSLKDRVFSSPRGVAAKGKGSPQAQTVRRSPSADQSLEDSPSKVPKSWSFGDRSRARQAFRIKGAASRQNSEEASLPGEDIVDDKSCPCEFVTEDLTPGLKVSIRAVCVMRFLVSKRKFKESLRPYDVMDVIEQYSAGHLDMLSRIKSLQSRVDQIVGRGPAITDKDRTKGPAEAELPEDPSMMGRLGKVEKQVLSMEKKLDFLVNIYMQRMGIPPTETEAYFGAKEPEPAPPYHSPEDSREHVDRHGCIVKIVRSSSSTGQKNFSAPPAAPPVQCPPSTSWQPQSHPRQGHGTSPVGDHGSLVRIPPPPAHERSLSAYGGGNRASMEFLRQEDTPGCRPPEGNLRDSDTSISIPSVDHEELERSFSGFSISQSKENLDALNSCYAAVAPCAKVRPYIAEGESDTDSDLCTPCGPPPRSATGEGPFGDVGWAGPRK

As for “Calmodulin (from UniProt P0DP23 1-149) (natural protein)”, the FRET efficiency (ratio of peak emission at 528 and 492 nm) of the folding sensor co-expressed with CaM in assay [1] is 0.4. The substance further returned an FRET efficiency of the soluble fraction of the sensor co-expressed with CaM in E. coli, relative to the WT biosensor in assay [2] of 33%.

Turning to “Calmodulin with an N-terminus mCFP-tag (from UniProt P0DP23 1-149) (natural protein)”, the FRET efficiency in assay [3] was determined as 0.18.
